For 29 sequences, protein stability index results are on record in the supplement of paper PMC10567573.

The data set in a line: protein stability index of a GFP-peptide fusion (GPS, HEK-293T) (PSI 1-6); higher = more stable. To be noted: c terminus: a fixed tail appended.

± gives the standard deviation.
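Also: 24-mer peptide tiles fused after GFP, lentivirally expressed, FACS-sorted into six equal bins by GFP/DsRed ratio, decoded by Illumina sequencing, PSI is the read-weighted mean bin number.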

Turning to NSLRGVILDIHFLSQADFLVCTFS [FUT8], the protein stability index reads like this: (treatment: DMSO) 2.72 ± 0.71; (treatment: MLN4924 1 uM, 8 h) 2.79 ± 0.49.
As to NSNQATDIMETSGWKSMIQSHPHL [SPOPL], the protein stability index reads like this: (treatment: DMSO) 3.34 ± 0.22; (treatment: MLN4924 1 uM, 8 h) 3.48 ± 0.21.
As for NTLQTYIRCRHPPPGSHLLYAKMI [VDR], the protein stability index amounted to 2.21 ± 0.15 (treatment: DMSO) and 2.33 ± 0.25 (treatment: MLN4924 1 uM, 8 h).
NTTCQTENRLSVFFSVIFMTVGIL [PTGFR] returned a protein stability index (treatment: DMSO) of 2.39 ± 0.53 and a protein stability index (treatment: MLN4924 1 uM, 8 h) of 2.64 ± 0.46.
In the case of NYCLLFLIYTVMLAFRSGSDNLLV [SLC35F2], the protein stability index runs as follows: (treatment: DMSO) 3.04 ± 0.44; (treatment: MLN4924 1 uM, 8 h) 3.29 ± 0.79.
Take NYSIPSNVTNLEGGPGRQTTSPNV [ESR2]: the protein stability index by setting is: (treatment: DMSO) 4.66 ± 0.36; (treatment: MLN4924 1 uM, 8 h) 4.68 ± 0.27.
PAAMGPPGAPPGRDLASVPPELTA [DVL3] displayed a protein stability index (treatment: DMSO) of 4.88 ± 0.29 and a protein stability index (treatment: MLN4924 1 uM, 8 h) of 4.89 ± 0.075.
Consider PAGVGVVVEATHMCMVMRGVQKMN [GCH1], for which the protein stability index came to 2.41 ± 0.23 (treatment: DMSO) and 2.32 ± 0.34 (treatment: MLN4924 1 uM, 8 h).
For PAMRNSPTFKSFEERVETTVTSLK [TPD52L1], the protein stability index amounted to 4.61 ± 0.13 (treatment: DMSO) and 4.42 ± 0.2 (treatment: MLN4924 1 uM, 8 h).
Regarding PAPALCCAPYDSRLLGSARPELGA [IRX6], the protein stability index runs as follows: (treatment: DMSO) 3.08 ± 0.19; (treatment: MLN4924 1 uM, 8 h) 3.1 ± 0.25.
For the sequence PASSRNRSPSGSLRSARGSRGGTR [RBMY1A1], the protein stability index by setting is: (treatment: DMSO) 5.14 ± 0.37; (treatment: MLN4924 1 uM, 8 h) 5.25 ± 0.24.
With PAWYVAACRANVKSGAIMSALSDT [PPFIA4], the protein stability index is 2.58 ± 0.26 (treatment: DMSO) and 2.25 ± 0.39 (treatment: MLN4924 1 uM, 8 h).
The corresponding values for PAYGMSPSLSTITSTSSSITSSIP [DVL3] are 3.82 ± 0.26 and 3.65 ± 0.27.
Regarding PDDVDYATNPHVKPPYSYATLICM [FOXJ1], the protein stability index was determined as 2.22 ± 0.28 (treatment: DMSO) and 2.2 ± 0.28 (treatment: MLN4924 1 uM, 8 h).
PDTQLLKFQLNKYTGEIKISENLD [PCDHGA10]: the protein stability index was 3.43 ± 0.44 (treatment: DMSO) and 3.66 ± 0.17 (treatment: MLN4924 1 uM, 8 h).
As for PEGTENPLGVDESLFSYGLRESIA [SLA], the protein stability index came out at 4.04 ± 1.1 (treatment: DMSO) and 4.19 ± 0.1 (treatment: MLN4924 1 uM, 8 h).
The matching figures for PEISRIIVDPTTGKRYCRGKVLGK [PLK2]: 3.9 ± 0.22 and 4.04 ± 0.2.
The corresponding values for PEKQKRKPGLRRSPIKKVRKSLAL [MYBL2] are 3.97 ± 0.2 and 3.83 ± 0.075.
The corresponding values for PFREILCKKLHIPLKAQNDLDISR [P2RY14] are 2.39 ± 0.12 and 2.46 ± 0.29.
Regarding PGFDSSVYSDLCEAAEAVRPEERK [ADAMTSL2], the protein stability index is, setting by setting: (treatment: DMSO) 5.42 ± 0.19; (treatment: MLN4924 1 uM, 8 h) 5.83 ± 0.18.
In the case of PGKYFSAAEYHAQRLKAVIVIQTY [IQUB], the protein stability index runs as follows: (treatment: DMSO) 2.81 ± 0.32; (treatment: MLN4924 1 uM, 8 h) 2.5 ± 0.66.
Regarding PGPGDDLCSDLEEAPEAELSQAPA [HES6], the protein stability index stood at 5.44 ± 0.23 (treatment: DMSO) and 5.43 ± 0.35 (treatment: MLN4924 1 uM, 8 h).
Turning to PGPPGPTGVPGSPGHIGPPGPTGP [EMID1], the protein stability index reads like this: (treatment: DMSO) 5.29 ± 0.11; (treatment: MLN4924 1 uM, 8 h) 5.13 ± 0.44.
The corresponding values for PGPTAPSPTSRPPWAVDPAFAERY [PDLIM7] are 2.2 ± 0.43 and 3.02 ± 0.36.
As for PGRSRMISQEEFARQLQLSDPQTV [LPCAT4], the protein stability index amounted to 4.44 ± 0.22 (treatment: DMSO) and 4.38 ± 0.12 (treatment: MLN4924 1 uM, 8 h).
For the sequence PGSLGPWKITIYDQENFQGKRMEF [CRYBA1], the protein stability index runs as follows: (treatment: DMSO) 2.25 ± 0.33; (treatment: MLN4924 1 uM, 8 h) 2.18 ± 0.39.
As to PGVAYPAFLGPDEAFALPDSLLVV [SPSB4], the protein stability index was 2.76 ± 0.49 (treatment: DMSO) and 2.21 ± 0.13 (treatment: MLN4924 1 uM, 8 h).
In the case of PHFQPDASLLQPVTPLGTSRWRKI [NCF4], the protein stability index stood at 3.58 ± 0.3 (treatment: DMSO) and 3.73 ± 0.17 (treatment: MLN4924 1 uM, 8 h).
The corresponding values for PINYQGLRFSGVNDTDFRVYLLGN [POMT2] are 2.27 ± 0.23 and 2.46 ± 0.14.
